Target: T1, EBNA2-wt, transiently expressed in HEK 293-T cells (Epstein-Barr virus, UniProt P12978 1-487, arginines of the RG-repeat (aa 339–354) symmetrically or asymmetrically di-methylated (SDMA or ADMA))
T1 sequence (looked up): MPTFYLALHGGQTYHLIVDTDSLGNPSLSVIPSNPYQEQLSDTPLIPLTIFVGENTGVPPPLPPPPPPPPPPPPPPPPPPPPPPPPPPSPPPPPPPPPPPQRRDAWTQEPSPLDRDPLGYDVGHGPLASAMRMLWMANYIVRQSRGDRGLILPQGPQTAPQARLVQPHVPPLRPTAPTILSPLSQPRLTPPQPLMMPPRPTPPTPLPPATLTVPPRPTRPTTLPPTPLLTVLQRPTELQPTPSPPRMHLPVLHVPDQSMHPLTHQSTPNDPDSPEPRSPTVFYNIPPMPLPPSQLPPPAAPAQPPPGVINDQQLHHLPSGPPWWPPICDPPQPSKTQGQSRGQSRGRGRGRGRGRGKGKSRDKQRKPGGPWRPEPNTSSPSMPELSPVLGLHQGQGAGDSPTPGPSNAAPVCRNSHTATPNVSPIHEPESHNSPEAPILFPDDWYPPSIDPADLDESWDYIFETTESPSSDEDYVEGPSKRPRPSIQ
Experiment: cell-based or functional assay

B1: GFP-hnRNP K (wild type), expressed in 293T cells (natural protein)
chain: not shown
LMP2A promoter luciferase reporter in DG75 cells; co-expression of hnRNP K-wt (pSG5-HA-hnRNP K) with EBNA2-wt (pSG5-EBNA2): ≤ 3 fold

— paper PMC3411732, “Binding of the Heterogeneous Ribonucleoprotein K (hnRNP K) to the Epstein-Barr Virus Nuclear Antigen 2 (EBNA2) Enhances Viral LMP2A Expression” (PLoS ONE, 2012)
